# Experimental data from article PMC6189457.
# B1: CD19: swainsonine (protein)
# parent chain: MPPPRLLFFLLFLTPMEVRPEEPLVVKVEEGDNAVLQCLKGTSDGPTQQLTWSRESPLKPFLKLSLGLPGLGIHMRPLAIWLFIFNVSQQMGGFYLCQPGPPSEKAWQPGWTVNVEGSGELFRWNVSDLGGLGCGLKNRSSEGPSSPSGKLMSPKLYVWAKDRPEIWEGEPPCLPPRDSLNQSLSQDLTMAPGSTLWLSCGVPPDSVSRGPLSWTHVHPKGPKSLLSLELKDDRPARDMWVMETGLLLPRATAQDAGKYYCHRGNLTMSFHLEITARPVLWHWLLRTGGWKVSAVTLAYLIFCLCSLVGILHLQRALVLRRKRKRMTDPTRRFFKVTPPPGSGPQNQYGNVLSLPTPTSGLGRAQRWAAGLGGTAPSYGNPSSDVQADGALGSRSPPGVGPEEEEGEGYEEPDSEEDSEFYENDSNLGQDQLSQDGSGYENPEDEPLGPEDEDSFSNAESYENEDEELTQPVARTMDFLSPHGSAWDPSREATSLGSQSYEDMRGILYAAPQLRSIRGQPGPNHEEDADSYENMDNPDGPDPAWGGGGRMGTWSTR
# Experiment: confocal FL-CD19-GFP, WGA Pearson colocalisation, Nalm6 and 697
# Conditions: glycan changed form; control: DMSO
protein,measurement,value
B1,localisation_or_trafficking,no change
